For one assay, the target named is GST-Nuf2-Ndc80 complex (UniProt Q9BZD4;O14777). The assay is described as follows: pull-down.
Another assay deals with Nuf2-Ndc80 complex (UniProt Q9BZD4;O14777). The assay is described as follows: SEC. In general terms: SEC sorts molecules by how far they enter the pores of the column.
Nuf2-Ndc80 complex, sequence (Q9BZD4 whole entry, chain 1 of 2): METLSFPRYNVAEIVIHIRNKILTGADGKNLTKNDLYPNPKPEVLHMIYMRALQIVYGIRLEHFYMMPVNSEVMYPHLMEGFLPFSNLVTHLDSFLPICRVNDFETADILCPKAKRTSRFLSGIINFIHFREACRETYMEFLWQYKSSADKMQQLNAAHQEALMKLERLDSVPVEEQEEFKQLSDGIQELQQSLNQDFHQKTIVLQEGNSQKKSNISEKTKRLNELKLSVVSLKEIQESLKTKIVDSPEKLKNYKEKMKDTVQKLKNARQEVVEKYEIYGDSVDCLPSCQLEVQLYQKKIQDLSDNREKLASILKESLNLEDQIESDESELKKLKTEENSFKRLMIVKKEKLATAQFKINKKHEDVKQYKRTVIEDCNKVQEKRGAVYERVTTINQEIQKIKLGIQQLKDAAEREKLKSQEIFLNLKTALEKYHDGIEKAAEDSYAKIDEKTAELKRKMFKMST
Nuf2-Ndc80 complex, sequence (O14777 whole entry, chain 2 of 2): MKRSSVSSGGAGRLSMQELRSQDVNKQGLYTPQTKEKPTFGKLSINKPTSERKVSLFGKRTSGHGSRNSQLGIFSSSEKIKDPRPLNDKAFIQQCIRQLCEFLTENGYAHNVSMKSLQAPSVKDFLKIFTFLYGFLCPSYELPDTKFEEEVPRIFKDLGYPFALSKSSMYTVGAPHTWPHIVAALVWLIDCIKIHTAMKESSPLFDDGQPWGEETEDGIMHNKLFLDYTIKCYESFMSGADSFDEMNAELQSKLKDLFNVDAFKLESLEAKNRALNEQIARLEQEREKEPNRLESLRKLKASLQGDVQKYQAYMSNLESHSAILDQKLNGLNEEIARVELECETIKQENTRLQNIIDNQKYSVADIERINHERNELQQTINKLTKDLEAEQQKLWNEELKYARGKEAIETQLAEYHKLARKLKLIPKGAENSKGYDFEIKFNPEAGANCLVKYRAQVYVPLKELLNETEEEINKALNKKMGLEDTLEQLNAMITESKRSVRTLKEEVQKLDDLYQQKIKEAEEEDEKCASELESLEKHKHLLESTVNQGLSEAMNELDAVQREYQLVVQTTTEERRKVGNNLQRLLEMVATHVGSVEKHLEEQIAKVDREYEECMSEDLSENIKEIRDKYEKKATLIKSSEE

GST-Nuf2-Ndc80 complex, sequence (Q9BZD4 whole entry, chain 1 of 2): as the sequence (Q9BZD4 whole entry, chain 1 of 2) above
GST-Nuf2-Ndc80 complex, sequence (O14777 whole entry, chain 2 of 2): as the sequence (O14777 whole entry, chain 2 of 2) above

B1: Ska1-Ska2-Ska3 6A complex (complex)
chain 1: MASSDLEQLCSHVNEKIGNIKKTLSLRNCGQEPTLKTVLNKIGDEIIVINELLNKLELEIQYQEQTNNSLKELCESLEEDYKDIEHLKENVPSHLPQVTVTQSCVKGSDLDPEEPIKVEEPEPVKKPPKEQRSIKEMPFITCDEFNGVPSYMKSRLTYNQINDVIKEINKAVISKYKILHQPKKSMNSVTRNLYHRFIDEETKDTKGRYFIVEADIKEFTTLKADKKFHVLLNILRHCRRLSEVRGGGLTRYVIT
chain 2: MEAEVDKLELMFQKAESDLDYIQYRLEYEIKTNHPDSASEKNPVTLLKELSVIKSRYQTLYARFKPVAVEQKESKSRICATVKKTMNMIQKLQKQTDLELSPLTKEEKTAAEQFKFHMPDL
chain 3: MDPIRSFCGKLRSLASTLDCETARLQRALDGEESDFEDYPMRILYDLHSEVQTLKDDVNILLDKARLENQEGIDFIKATKVLMEKNSMDIMKIREYFQKYGYSPRVKKNSVHEQEAINSDPELSNCENFQKTDVKDDLSDPPVASSCISEKSPRSPQLSDFGLERYIVSQVLPNPPQAVNNYKEEPVIVTPPTKQSLVKVLKAPKCALKMDDFECVAPKLEHFGISEYTMCLNEDYTMGLKNARNNKSEEAIDTESRLNDNVFATPSPIIQQLEKSDAEYTNAPLVPTFCAPGLKIPSTKNSIALVSTNYPLSKTNSSSNDLEVEDRTSLVLNSDTCFENLTDPSSPTISSYENLLRAPAPPEVTKIPEDILQLLSKYNSNLATPIAIKAVPPSKRFLKHGQNIRDVSNKEN
Take B1: the binding result with GST-Nuf2-Ndc80 complex is “binds”.

B2: Ska1-Ska2-Ska3 6A complex treated with Cdk1/Cyclin B1 (complex)
chain 1: MASSDLEQLCSHVNEKIGNIKKTLSLRNCGQEPTLKTVLNKIGDEIIVINELLNKLELEIQYQEQTNNSLKELCESLEEDYKDIEHLKENVPSHLPQVTVTQSCVKGSDLDPEEPIKVEEPEPVKKPPKEQRSIKEMPFITCDEFNGVPSYMKSRLTYNQINDVIKEINKAVISKYKILHQPKKSMNSVTRNLYHRFIDEETKDTKGRYFIVEADIKEFTTLKADKKFHVLLNILRHCRRLSEVRGGGLTRYVIT
chain 2: MEAEVDKLELMFQKAESDLDYIQYRLEYEIKTNHPDSASEKNPVTLLKELSVIKSRYQTLYARFKPVAVEQKESKSRICATVKKTMNMIQKLQKQTDLELSPLTKEEKTAAEQFKFHMPDL
chain 3: MDPIRSFCGKLRSLASTLDCETARLQRALDGEESDFEDYPMRILYDLHSEVQTLKDDVNILLDKARLENQEGIDFIKATKVLMEKNSMDIMKIREYFQKYGYSPRVKKNSVHEQEAINSDPELSNCENFQKTDVKDDLSDPPVASSCISEKSPRSPQLSDFGLERYIVSQVLPNPPQAVNNYKEEPVIVTPPTKQSLVKVLKAPKCALKMDDFECVAPKLEHFGISEYTMCLNEDYTMGLKNARNNKSEEAIDTESRLNDNVFATPSPIIQQLEKSDAEYTNAPLVPTFCAPGLKIPSTKNSIALVSTNYPLSKTNSSSNDLEVEDRTSLVLNSDTCFENLTDPSSPTISSYENLLRAPAPPEVTKIPEDILQLLSKYNSNLATPIAIKAVPPSKRFLKHGQNIRDVSNKEN
modifications: treated with Cdk1/Cyclin B1 plus ATP; phosphorylated residues not stated
Consider B2, for which, in the assay with GST-Nuf2-Ndc80 complex, the binding result is given as “binds”.

B3: Ska1-Ska2-Ska3 6D complex (complex)
chain 1: MASSDLEQLCSHVNEKIGNIKKTLSLRNCGQEPTLKTVLNKIGDEIIVINELLNKLELEIQYQEQTNNSLKELCESLEEDYKDIEHLKENVPSHLPQVTVTQSCVKGSDLDPEEPIKVEEPEPVKKPPKEQRSIKEMPFITCDEFNGVPSYMKSRLTYNQINDVIKEINKAVISKYKILHQPKKSMNSVTRNLYHRFIDEETKDTKGRYFIVEADIKEFTTLKADKKFHVLLNILRHCRRLSEVRGGGLTRYVIT
chain 2: MEAEVDKLELMFQKAESDLDYIQYRLEYEIKTNHPDSASEKNPVTLLKELSVIKSRYQTLYARFKPVAVEQKESKSRICATVKKTMNMIQKLQKQTDLELSPLTKEEKTAAEQFKFHMPDL
chain 3: MDPIRSFCGKLRSLASTLDCETARLQRALDGEESDFEDYPMRILYDLHSEVQTLKDDVNILLDKARLENQEGIDFIKATKVLMEKNSMDIMKIREYFQKYGYSPRVKKNSVHEQEAINSDPELSNCENFQKTDVKDDLSDPPVASSCISEKSPRSPQLSDFGLERYIVSQVLPNPPQAVNNYKEEPVIVTPPTKQSLVKVLKDPKCALKMDDFECVDPKLEHFGISEYTMCLNEDYTMGLKNARNNKSEEAIDTESRLNDNVFATPSPIIQQLEKSDAEYTNDPLVPTFCDPGLKIPSTKNSIALVSTNYPLSKTNSSSNDLEVEDRTSLVLNSDTCFENLTDPSSPTISSYENLLRDPDPPEVTKIPEDILQLLSKYNSNLATPIAIKAVPPSKRFLKHGQNIRDVSNKEN
Regarding B3, the binding result in the assay with GST-Nuf2-Ndc80 complex and in the assay with Nuf2-Ndc80 complex was “binds” in each case.
